Assay: yeast display, Sf9 membrane polyspecificity reagent, FACS + sequencing; frameworks hold sequencing errors
Outline: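 Genes from sorted yeast were amplified by colony PCR, read by MiSeq 2 × 250 sequencing and filtered on CDR length. These cells carried a synthetic nanobody library in Saccharomyces cerevisiae BJ5465 and were sorted by FACS into low and high (top ~1%) gates on anti-HA and streptavidin fluorescence. Polyreactivity is labelled according to the gate of origin.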

Sequence	polyreactivity (PSR sort gate)
QVQLVESGGGLGQAGGSLRLSCAASGSIFGKNAMGWYRQAPGKETELVAAITWSGGSTYYADSVKGRFTISRDNAKNTVYLQLNSLKPEDTAVYYCNAVRVRVTSHRFRQLDYGYWGQGTQVTVSS	low polyreactivity
QVQLVESGGGLVQAGGSLRLSCAASGSTFPYYAMGWYRQAPGKERELVARISYRGGRTYYADSVKGRFTISRDNAKNTVYLQMNSLKPEDTAVYYCAADRWVYYHSTRYDYWGQGTQVTVSS	high polyreactivity
QVQLVESGGGLVQAGGSLRLSCAASGSIFYDYTMGWYRQAPGKERELVAAITSDGSTYYADSVKGRFTISRDNAKNTVYLQMKSLKPEDTAVYYCAVFSDVFLYYYGETYDYWGQGTQVTVSS	high polyreactivity
QVQLVESGGGLVQAGGSLRLSCAASGLTFRLNAMGWYRHAPGKERELVAAITRGGRTNYADSVKGRFTISRDNAKNTVYLQMNSLKPEDTAVYYCAARYVERHTDYYYWGQGTQVTVSS	low polyreactivity
QVQLVESGGGLVQAGGSLRLSCAASGRIFTDYAMGWYRQAPGKERELVASITERGGSTDYADSVKGRFTISRDNAKITVYLQMNSLKPEDTAVYYCNARDVTLWEDVYQQDGSGSWGLGTQVTVSS	low polyreactivity
QVQLVESGGGLVQAGGSLRLSCAASGIIFYRYAMGWYRQAPGKERELVAAISASGDSTYYADSVKGRFTISRDNAKNTVYLQMNSLKPEDTAVYYCAADYGYRYDYWGQGTQVTVSS	low polyreactivity
QVQLVETAGGLVQAGGSLRLSSAASGRTFTLNAMGWYRQAPGKERELVATISRRGGSTYYADSVKGRFTISRDNAKNTVYLQMNSLNPEDTAVYYCNAGSSVLKYDYWGQGTEVTVSS	low polyreactivity
QVQLVESGGCLVQAGGSLRLSCAASGRTFPLYAMGWYRQAPGKERELVASITNGGNTNYADSVKGRFTISRDNEKNTVYLQMNSLKPEDTAVYYCAAQTFGYGFGGGDYWGQGTQVTVSS	low polyreactivity
QVQLVESGGGLVQAGGSLRLSCAASGSIFAEYAMGWYRQAPGKERELVAAITTSGSTNYADSVKGRFTISRDNAKNTVYLQMNSLKPEDTAVYYCNALFQQRYLDSSGEYWGQGTQVTVSS	low polyreactivity
QVQLVESGGGLVQAGGSLRLSCAASGFTLHSYAMGWYRQAPGKERELVAAITTGGSTYYADSVKGRFTISRDNAKNTVYLQMNSLKPEDTAVYYCAAEDPGPYGGYDYWGQGTQVTVSS	low polyreactivity
QVQLVESGGRLVQAGGSLRLSCAASGRIFNNYAMGWYRQAPGKERELVAAISGGGSTNYADSVKGRFTISRDNAKNTVYLQMNSLKPEDTAVYYCASGYLKASRDLYETVPYDYWGQGTQVTVSS	low polyreactivity
QVQLVESGGGLVQAGGSLRLSCASSGSIFLYNAMGWYRQAPGKERELVAVINGRGGTYYADSVKGRFTISRDNAKNTVYLQMNSLKPEDTAVYYCATGFPPSAWYDSVRFEDRDSWGQGTQVTVSS	low polyreactivity
QVQLVESGGGLVQAGGSLRISCAASGRTFYPYAMGWYRQAPGKEREFVAAITLTGDSTYYADSVKGRFTISRDNAKNTVYLQMNSLKPEDTAVYYCNAGVGARESDYWGQGTQLTVSS	low polyreactivity
QVQLVESGGGLVQAGGSLRLSCAASGSTFVDNAMGWYRQAPGKEREFVAAIDWSGGSTFYADSVKGRFTISRDNAKNTVYLQMNSLKPEDTAVYYCNADSYPQGDYWGQGSQVTVSS	low polyreactivity
QVQLVESGGGLVQAGGSLRLSCAASGLTSYSYAMGWYRPAPGKERELVAAITVNGGRTYYADSVKGRFTISRDNAKNTVYLQMNSLKPEDTAVYYCAAREVTGRPRSYYYWGQGTQVTVSS	low polyreactivity
QVQLVESGGGLVQAGGSLRLSCAASGRIFYYYAMGWYRQAPGKERELVASINSVGTTTYADSVKGRVTISRDNAKNTVYLQMNSLKPEDTAVYYCARDTGSIYYDGYEYDYWGQGTQVTVSS	low polyreactivity
QVQLVESGGGLVQAGGSLRLSCAASGGSYVMGWYRQAPGKERELVAAITFSGRTYYADSVKGRFTISRDNAKNTVYLQMNSLKPEDTAGYYCAARERPGFRRPLTGGYDHWGQVTQVTVSS	high polyreactivity
